Data published in US20150315275A1 (AstraZeneca / MedImmune, published 2015).
Where “and” joins values, the source holds several entries; their conditions need not be identical. Equal entries are not always repeated.

Columns and labels:
[1] = target: T1, human B7-H4 expressed on cells (human, UniProt Q7Z7D3 25-282); assay: flow cytometry on HEK293.hB7-H4 transfectants, one-site specific binding fit
T1 construct: the cell line is named under assay or readout; also called full length human B7-H4 on HEK293 cells; 293T.hB7-H4
T1 sequence: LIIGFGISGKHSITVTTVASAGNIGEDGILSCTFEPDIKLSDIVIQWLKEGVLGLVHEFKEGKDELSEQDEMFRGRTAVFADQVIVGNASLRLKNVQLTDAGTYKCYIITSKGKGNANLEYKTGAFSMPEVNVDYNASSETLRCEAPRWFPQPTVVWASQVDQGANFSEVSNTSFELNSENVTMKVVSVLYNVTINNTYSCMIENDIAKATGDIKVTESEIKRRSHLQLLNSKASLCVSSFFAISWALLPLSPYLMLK
Method: For each staining, 0.2 million HEK293.hB7-H4 transfectants were resuspended in 100 μl flow cytometry buffer (PBS+2% FBS). A serial dilution of chimeric 6H3 and 14 humanized variants of 0, 0.1 ng, 0.3 ng, 1 ng, 3 ng, 10 ng, 30 ng, 100 ng, 300 ng, 1 μg, 3 μg and 10 μg were added to the cells and incubated at 4° C. for 30 min. Cells were then washed twice with 2 ml flow cytometry buffer, and resuspended in 100 μl flow cytometry buffer. 1 μl anti-hIg PE secondary antibody (Biolegend) was added and incubated with the cells for 15 mins Samples were then washed and resuspended in 100 μl flow cytometry buffer. Flow Cytometry data was acquired using BD Canto (BD Biosciences) in plate format and analyzed by FlowJo software. Staining data (MFI) was then input into Prism 5 software to generate binding curve. Curve-fit using one-site specific binding algorithm calculates individual KD for each variant.

[2] = target: T2, B7-H4ECD his-tagged protein (Sinobiologics) (human, UniProt Q7Z7D3 25-259); assay: ELISA, B7-H4ECD his-tagged protein coated
T2 construct: Bought protein; Result paragraph calls the target human B7-H4; also called B7-H4 extracellular domain; not shown: his tag
T2 sequence: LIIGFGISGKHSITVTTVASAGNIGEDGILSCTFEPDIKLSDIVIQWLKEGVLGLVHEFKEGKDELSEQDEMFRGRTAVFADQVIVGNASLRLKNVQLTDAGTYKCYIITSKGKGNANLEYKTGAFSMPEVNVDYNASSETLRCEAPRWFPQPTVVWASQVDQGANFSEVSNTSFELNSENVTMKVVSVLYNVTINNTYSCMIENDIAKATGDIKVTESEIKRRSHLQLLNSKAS
Method: 100 μl 1 μg/ml B7-H4ECD his-tagged protein (Sinobiologics) diluted in PBS was immobilized on flat bottom 96 well plate (Costar 9017) overnight at 4° C. Plates were washed twice with PBS+0.1% PS-20 and blocked with 200 μl/well PBS 10% FBS at RT for 1 hr. 100 μl chimeric 6H3 and 14 selected 6H3 humanized variants diluted in PBS 10% FBS were added to each well and incubated at RT for 1 hr. Plates were washed three times and 100 μl 1 μg/ml anti-human Ig HRP (Sigma) was added to each well and incubated at RT for 1 hr. Plates were washed six times and 100 μl TMB substrate (SurModics) was added to each well for 5-15 mins 100 μl stop solution (0.1M Sulfuric acid) was added to each well. Plates were read at Absorbance 450 nm by PerkinElmer EnVision 2104 Multilabel Reader.

B7-H4-Ig fusion protein [3] = target: T3, B7-H4-Ig fusion protein (human); assay: competition ELISA on B7-H4-Ig-coated plate, Plate 1; competitor biotinylated mouse 6H3 (5 ng/ml)
T3 construct: also called human B7-H4 Ig
Method: (§1) A 12-point, 3-fold dilution series of 14 humanized 6H3 antibody variants was prepared ranging from 100 μg/ml to 0.5 ng/ml. Dilutions were prepared in assay diluent containing biotinylated mouse anti-human B7-H4 6H3 (SEQ ID NOS:3 and 5 for light chain variable region and heavy chain variable region respectively) at 5 ng/ml. Antibodies were allowed to bind to B7-H4-Ig-coated assay plates (200 ng/well) for 1 hour at room temperature and detected with streptavidin HRP.

[4] = target: T4, mouse B7-H4ECD mIgG2a Fc fusion protein (mouse, UniProt Q7TSP5 25-257, limits assumed); assay: ELISA, mouse B7-H4ECD mIgG2a Fc fusion coated
T4 construct: also called mouse B7-H4-mIg fusion protein; Mouse B7-H4-mouse-Ig Fusion Protein; not shown: mouse IgG2a Fc
T4 sequence: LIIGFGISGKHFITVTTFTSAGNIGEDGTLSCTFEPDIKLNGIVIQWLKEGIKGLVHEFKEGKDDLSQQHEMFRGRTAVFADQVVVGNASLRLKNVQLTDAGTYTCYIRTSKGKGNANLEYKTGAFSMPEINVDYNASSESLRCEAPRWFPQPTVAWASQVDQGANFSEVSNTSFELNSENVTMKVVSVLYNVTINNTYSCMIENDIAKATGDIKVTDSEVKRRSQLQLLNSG
Method: 100 μg/ml mouse B7-H4ECD mIgG2a Fc fusion protein diluted in PBS was immobilized on flat bottom 96 well plate (Costar 9017) overnight at 4° C. Plates were washed twice with PBS+0.1% PS-20 and blocked with 200 μl/well PBS 10% FBS at RT for 1 hr. 100 μl chimeric 6H3 and 14 selected 6H3 humanized variants diluted in PBS 10% FBS were added to each well and incubated at RT for 1 hr. Plates were washed three times and 100 μl 1 μg/ml anti-human Ig HRP (Sigma) was added to each well and incubated at RT for 1 hr. Plates were washed six times and 100 μl TMB substrate (SurModics) was added to each well for 5-15 mins 100 μl stop solution (0.1M Sulfuric acid) was added to each well. Plates were read at Absorbance 450 nm by PerkinElmer EnVision 2104 Multilabel Reader.

[5] = target: T1, human B7-H4 expressed on cells; assay: saturation binding, flow cytometry on 624mel/B7-H4 cells, biotinylated mAb, azide-treated cells; unit not given
Method: A saturation binding experiment was carried out on 624mel/B7-H4 cells using the chimeric 6H3 mAb and humanized variants of 6H3. Briefly, 50,000 cells were pretreated with 0.1% azide on ice for 30 minutes to inhibit B7-H4 internalization then stained for 30 minutes with biotinylated anti-B7-H4 mAbs. The mAbs were diluted in a 12-point, 3-fold dilution series ranging from 200 μg/ml down to 1 ng/ml. Cell were stained with streptavidin PE for 10 minutes, washed, fixed and analyzed by flow cytometry.
FIGS. 35A-35B are binding curves for the raw (FIG. 35A) and background subtracted data (FIG. 35B). […] The subtracted values were used to determine the Kd and Bmax. The antibodies appear to fall into two groups based on Kd values (Table 10).

B7-H4-Ig fusion protein [6] = target: T3, B7-H4-Ig fusion protein; assay: competition ELISA on B7-H4-Ig-coated plate, Plate 2; competitor biotinylated mouse 6H3 (5 ng/ml)
Method: as §1

Binder	Bmax(MFI) [1]	Kd [1]	EC50 [2]	EC50 (B7-H4-Ig fusion protein [3])	EC50 [4]	Bmax [5]	EC50 (B7-H4-Ig fusion protein [6])
humanized 6H3 variant 4 (antibody, V domains shown, also called V4; Variant 4 (antibody)) VH: EVQLVQSGAEMKKPGASVKVSCKASGYTFTDYYMNWVRQAPGQSLEWIGVINPYNGDTTYNQKFQGRVTVTVDKSATTAYMELSSLRSEDTAVYYCARYPESTYWGQGTLVTVSS VL: DVVMTQSPLSLPVTLGQPASISCRSSQSLVHINGNTYLHWYQQRPGQSPRVLIYKVSNRFSGVPDRFSGSGSGTDFTLKISRVEAEDVGVYFCSQSTHVPLTFGGGTKVEIK	580 MFI	5.2 nM	1.16 nM	2.95 µg/mL and 19.7 nM	0.08 nM	–	–
humanized 6H3 variant 8 (antibody, V domains shown, also called V8; H1A L2B) VH: QVQLVQSGAEVKKPGASVKVSCKASGYTFTDYYMHWVRQAPGQGLEWMGIINPYNGDTSYAQKFQGRVTMTRDTSTSTVYMELSSLRSEDTAVYYCARYPESTYWGQGTLVTVSS VL: DIVMTQTPLSLPVTLGQPASISCRSSQSLVHINGNTYLHWYQQRPGQSPRVLIYKVSNRFSGVPDRFSGSGSGTDFTLKISRVEAEDVGVYFCSQSTHVPLTFGQGTKVEIK	–	–	–	–	0.06 nM	–	–
humanized 6H3 variant 1 (antibody, V domains shown, also called V1; H1A L1B) VH: QVQLVQSGAEVKKPGASVKVSCKASGYTFTDYYMHWVRQAPGQGLEWMGIINPYNGDTSYAQKFQGRVTMTRDTSTSTVYMELSSLRSEDTAVYYCARYPESTYWGQGTLVTVSS VL: DVVMTQSPLSLPVTLGQPASISCRSSQSLVHINGNTYLHWYQQRPGQSPRVLIYKVSNRFSGVPDRFSGSGSGTDFTLKISRVEAEDVGVYFCSQSTHVPLTFGGGTKVEIK	–	–	–	–	0.1 nM	–	–
humanized 6H3 variant 6 (antibody, V domains shown, also called V6; Variant 6 (antibody)) VH: EVQLVQSGAEMKKPGASVKVSCKASGYTFTDYYMNWVRQAPGQSLEWMGVINPYNGDTTYNQKFQGRVTVAVDKSATTAYMELSSLRSEDTAVYYCARYPESTYWGQGTLVTVSS VL: DVVMTQSPLSLPVTLGQPASISCRSSQSLVHINGNTYLHWYLQRPGQSPKVLIYKVSNRFSGVPDRFSGSGSGTDFTLKISRVEAEDVGVYFCSQSTHVPLTFGGGTKVEIK	526 MFI	5 nM	1.64 nM	2.53 µg/mL and 16.9 nM	0.13 nM	6420	–
humanized 6H3 variant 2 (antibody, V domains shown, also called V2; 6H3 V2) VH: EVQLVQSGAEVKKPGASVKVSCKASGYTFTDYYMNWVRQAPGQGLEWIGIINPYNGDTSYNQKFKGRVTLTVDKSTSTAYMELSSLRSEDTAVYYCARYPESTYWGQGTLVTVSS VL: DVVMTQSPLSLPVTLGQPASISCRSSQSLVHINGNTYLHWYQQRPGQSPRVLIYKVSNRFSGVPDRFSGSGSGTDFTLKISRVEAEDVGVYFCSQSTHVPLTFGGGTKVEIK	603 MFI	2.4 nM	0.51 nM	2.46 µg/mL and 16.4 nM	0.08 nM	4650	–
humanized 6H3 variant 7 (antibody, V domains shown, also called V7; 6H3 V7) VH: EVQLVQSGAEMKKPGASVKVSCKASGYTFTDYYMNWVRQAPGQSLEWIGVINPYNGDTTYNQKFQGRVTVTVDKSATTAYMELSSLRSEDTAVYYCARYPESTYWGQGTLVTVSS VL: DVVMTQSPLSLPVTLGQPASISCRSSQSLVHINGNTYLHWYLQRPGQSPKVLIYKVSNRFSGVPDRFSGSGSGTDFTLKISRVEAEDVGVYFCSQSTHVPLTFGGGTKVEIK	513 MFI	6.5 nM	1.07 nM	2.63 µg/mL and 17.5 nM	0.11 nM	6080	–
humanized 6H3 variant 5 (antibody, V domains shown, also called V5; Variant 5 (antibody)) VH: EVQLVQSGAEVKKPGASVKVSCKASGYTFTDYYMNWVRQAPGQGLEWIGIINPYNGDTSYNQKFKGRVTLTVDKSTSTAYMELSSLRSEDTAVYYCARYPESTYWGQGTLVTVSS VL: DVVMTQSPLSLPVTLGQPASISCRSSQSLVHINGNTYLHWYLQRPGQSPKVLIYKVSNRFSGVPDRFSGSGSGTDFTLKISRVEAEDVGVYFCSQSTHVPLTFGGGTKVEIK	646 MFI	4.2 nM	0.95 nM	3.62 µg/mL and 24.2 nM	0.05 nM	–	–
humanized 6H3 variant 3 (antibody, V domains shown, also called V3; H2B L1B) VH: EVQLVQSGAEMKKPGASVKVSCKASGYTFTDYYMNWVRQAPGQSLEWMGVINPYNGDTTYNQKFQGRVTVAVDKSATTAYMELSSLRSEDTAVYYCARYPESTYWGQGTLVTVSS VL: DVVMTQSPLSLPVTLGQPASISCRSSQSLVHINGNTYLHWYQQRPGQSPRVLIYKVSNRFSGVPDRFSGSGSGTDFTLKISRVEAEDVGVYFCSQSTHVPLTFGGGTKVEIK	583 MFI	6 nM	1.19 nM	3.09 µg/mL and 20.6 nM	0.1 nM	–	–
humanized 6H3 variant 11 (antibody, V domains shown, also called V11; H2C L2B) VH: EVQLVQSGAEMKKPGASVKVSCKASGYTFTDYYMNWVRQAPGQSLEWIGVINPYNGDTTYNQKFQGRVTVTVDKSATTAYMELSSLRSEDTAVYYCARYPESTYWGQGTLVTVSS VL: DIVMTQTPLSLPVTLGQPASISCRSSQSLVHINGNTYLHWYQQRPGQSPRVLIYKVSNRFSGVPDRFSGSGSGTDFTLKISRVEAEDVGVYFCSQSTHVPLTFGQGTKVEIK	648 MFI	6.9 nM	0.97 nM	–	0.11 nM	–	2.2 µg/mL and 14.7 nM
humanized 6H3 variant 10 (antibody, V domains shown, also called V10; H2B L2B) VH: EVQLVQSGAEMKKPGASVKVSCKASGYTFTDYYMNWVRQAPGQSLEWMGVINPYNGDTTYNQKFQGRVTVAVDKSATTAYMELSSLRSEDTAVYYCARYPESTYWGQGTLVTVSS VL: DIVMTQTPLSLPVTLGQPASISCRSSQSLVHINGNTYLHWYQQRPGQSPRVLIYKVSNRFSGVPDRFSGSGSGTDFTLKISRVEAEDVGVYFCSQSTHVPLTFGQGTKVEIK	662 MFI	5.5 nM	0.89 nM	–	0.13 nM	–	2.13 µg/mL and 14.2 nM
